Experimental data as given in paper PMC5550493, “The Conserved Lysine-265 Allosterically Modulates Nucleotide- and Actin-binding Site Coupling in Myosin-2” (Scientific Reports, 2017).

B1: Dd myosin-2 M765-2R wild type (Dd myosin-2 motor domain fused to two Dd α-actinin repeats) (other)
chain: MNPIHDRTSDYHKYLKVKQGDSDLFKLTVSDKRYIWYNPDPKERDSYECGEIVSETSDSFTFKTVDGQDRQVKKDDANQRNPIKFDGVEDMSELSYLNEPAVFHNLRVRYNQDLIYTYSGLFLVAVNPFKRIPIYTQEMVDIFKGRRRNEVAPHIFAISDVAYRSMLDDRQNQSLLITGESGAGKTENTKKVIQYLASVAGRNQANGSGVLEQQILQANPILEAFGNAKTTRNNNSSRFGKFIEIQFNSAGFISGASIQSYLLEKSRVVFQSETERNYHIFYQLLAGATAEEKKALHLAGPESFNYLNQSGCVDIKGVSDSEEFKITRQAMDIVGFSQEEQMSIFKIIAGILHLGNIKFEKGAGEGAVLKDKTALNAASTVFGVNPSVLEKALMEPRILAGRDLVAQHLNVEKSSSSRDALVKALYGRLFLWLVKKINNVLCQERKAYFIGVLDISGFEIFKVNSFEQLCINYTNEKLQQFFNHHMFKLEQEEYLKEKINWTFIDFGLDSQATIDLIDGRQPPGILALLDEQSVFPNATDNTLITKLHSHFSKKNAKYEEPRFSKTEFGVTHYAGQVMYEIQDWLEKNKDPLQQDLELCFKDSSDNVVTKLFNDPNIASRAKKGANFITVAAQYKEQLASLMATLETTNPHFVRCIIPNNKQLPAKLEDKVVLDQLRCNGVLEGIRITRKGFPNRIIYADFVKRYYLLAPNVPRDAEDSQKATDAVLKHLNIDPEQYRFGITKIFFRAGQLARIEEAREQRISEILEQTKSDYLKRANELVQWINDKQASLESRDFGDSIESVQSFMNAHKEYKKTEKPPKGQEVSELEAIYNSLQTKLRLIKREPFVAPAGLTPNEIDSTWSALEKAEQEHAEALRIELKRQKKIAVLLQKYNRILKKLENWATTKSVYLGSNETGDSITAVQAKLKNLEAFDGECQSLEGQSNSDLLSILAQLTELNYNGVPELTERKDTFFAQQWTGVKSSAETYKNTLLAELERLQKIEDSLV
notes: Dictyostelium discoideum myosin-2 heavy chain (mhcA gene), first 765 residues (motor domain); Dictyostelium discoideum α-actinin, codon 264 to 505 (two α-actinin repeats, artificial lever arm); Expression vector based on pDXA-3H; also called WT; M765-2R WT; source: Dictyostelium discoideum AX3-Orf+ cells, purified (Ni-NTA)
B2: Dd myosin-2 M765-2R K265A (other)
chain: MNPIHDRTSDYHKYLKVKQGDSDLFKLTVSDKRYIWYNPDPKERDSYECGEIVSETSDSFTFKTVDGQDRQVKKDDANQRNPIKFDGVEDMSELSYLNEPAVFHNLRVRYNQDLIYTYSGLFLVAVNPFKRIPIYTQEMVDIFKGRRRNEVAPHIFAISDVAYRSMLDDRQNQSLLITGESGAGKTENTKKVIQYLASVAGRNQANGSGVLEQQILQANPILEAFGNAKTTRNNNSSRFGKFIEIQFNSAGFISGASIQSYLLEASRVVFQSETERNYHIFYQLLAGATAEEKKALHLAGPESFNYLNQSGCVDIKGVSDSEEFKITRQAMDIVGFSQEEQMSIFKIIAGILHLGNIKFEKGAGEGAVLKDKTALNAASTVFGVNPSVLEKALMEPRILAGRDLVAQHLNVEKSSSSRDALVKALYGRLFLWLVKKINNVLCQERKAYFIGVLDISGFEIFKVNSFEQLCINYTNEKLQQFFNHHMFKLEQEEYLKEKINWTFIDFGLDSQATIDLIDGRQPPGILALLDEQSVFPNATDNTLITKLHSHFSKKNAKYEEPRFSKTEFGVTHYAGQVMYEIQDWLEKNKDPLQQDLELCFKDSSDNVVTKLFNDPNIASRAKKGANFITVAAQYKEQLASLMATLETTNPHFVRCIIPNNKQLPAKLEDKVVLDQLRCNGVLEGIRITRKGFPNRIIYADFVKRYYLLAPNVPRDAEDSQKATDAVLKHLNIDPEQYRFGITKIFFRAGQLARIEEAREQRISEILEQTKSDYLKRANELVQWINDKQASLESRDFGDSIESVQSFMNAHKEYKKTEKPPKGQEVSELEAIYNSLQTKLRLIKREPFVAPAGLTPNEIDSTWSALEKAEQEHAEALRIELKRQKKIAVLLQKYNRILKKLENWATTKSVYLGSNETGDSITAVQAKLKNLEAFDGECQSLEGQSNSDLLSILAQLTELNYNGVPELTERKDTFFAQQWTGVKSSAETYKNTLLAELERLQKIEDSLV
notes: Dictyostelium discoideum myosin-2 heavy chain (mhcA gene), first 765 residues (motor domain), with K265A; Dictyostelium discoideum α-actinin, codon 264 to 505 (two α-actinin repeats, artificial lever arm); Point mutant of the fusion construct m1; source: Dictyostelium discoideum AX3-Orf+ cells, purified (Ni-NTA)
B3: Dd myosin-2 M765-2R K265Q (other)
chain: MNPIHDRTSDYHKYLKVKQGDSDLFKLTVSDKRYIWYNPDPKERDSYECGEIVSETSDSFTFKTVDGQDRQVKKDDANQRNPIKFDGVEDMSELSYLNEPAVFHNLRVRYNQDLIYTYSGLFLVAVNPFKRIPIYTQEMVDIFKGRRRNEVAPHIFAISDVAYRSMLDDRQNQSLLITGESGAGKTENTKKVIQYLASVAGRNQANGSGVLEQQILQANPILEAFGNAKTTRNNNSSRFGKFIEIQFNSAGFISGASIQSYLLEQSRVVFQSETERNYHIFYQLLAGATAEEKKALHLAGPESFNYLNQSGCVDIKGVSDSEEFKITRQAMDIVGFSQEEQMSIFKIIAGILHLGNIKFEKGAGEGAVLKDKTALNAASTVFGVNPSVLEKALMEPRILAGRDLVAQHLNVEKSSSSRDALVKALYGRLFLWLVKKINNVLCQERKAYFIGVLDISGFEIFKVNSFEQLCINYTNEKLQQFFNHHMFKLEQEEYLKEKINWTFIDFGLDSQATIDLIDGRQPPGILALLDEQSVFPNATDNTLITKLHSHFSKKNAKYEEPRFSKTEFGVTHYAGQVMYEIQDWLEKNKDPLQQDLELCFKDSSDNVVTKLFNDPNIASRAKKGANFITVAAQYKEQLASLMATLETTNPHFVRCIIPNNKQLPAKLEDKVVLDQLRCNGVLEGIRITRKGFPNRIIYADFVKRYYLLAPNVPRDAEDSQKATDAVLKHLNIDPEQYRFGITKIFFRAGQLARIEEAREQRISEILEQTKSDYLKRANELVQWINDKQASLESRDFGDSIESVQSFMNAHKEYKKTEKPPKGQEVSELEAIYNSLQTKLRLIKREPFVAPAGLTPNEIDSTWSALEKAEQEHAEALRIELKRQKKIAVLLQKYNRILKKLENWATTKSVYLGSNETGDSITAVQAKLKNLEAFDGECQSLEGQSNSDLLSILAQLTELNYNGVPELTERKDTFFAQQWTGVKSSAETYKNTLLAELERLQKIEDSLV
notes: Dictyostelium discoideum myosin-2 heavy chain (mhcA gene), first 765 residues (motor domain), with K265Q; Dictyostelium discoideum α-actinin, codon 264 to 505 (two α-actinin repeats, artificial lever arm); Point mutant of the fusion construct m1; source: Dictyostelium discoideum AX3-Orf+ cells, purified (Ni-NTA)
B4: Dd myosin-2 M765-2R K265E (other)
chain: MNPIHDRTSDYHKYLKVKQGDSDLFKLTVSDKRYIWYNPDPKERDSYECGEIVSETSDSFTFKTVDGQDRQVKKDDANQRNPIKFDGVEDMSELSYLNEPAVFHNLRVRYNQDLIYTYSGLFLVAVNPFKRIPIYTQEMVDIFKGRRRNEVAPHIFAISDVAYRSMLDDRQNQSLLITGESGAGKTENTKKVIQYLASVAGRNQANGSGVLEQQILQANPILEAFGNAKTTRNNNSSRFGKFIEIQFNSAGFISGASIQSYLLEESRVVFQSETERNYHIFYQLLAGATAEEKKALHLAGPESFNYLNQSGCVDIKGVSDSEEFKITRQAMDIVGFSQEEQMSIFKIIAGILHLGNIKFEKGAGEGAVLKDKTALNAASTVFGVNPSVLEKALMEPRILAGRDLVAQHLNVEKSSSSRDALVKALYGRLFLWLVKKINNVLCQERKAYFIGVLDISGFEIFKVNSFEQLCINYTNEKLQQFFNHHMFKLEQEEYLKEKINWTFIDFGLDSQATIDLIDGRQPPGILALLDEQSVFPNATDNTLITKLHSHFSKKNAKYEEPRFSKTEFGVTHYAGQVMYEIQDWLEKNKDPLQQDLELCFKDSSDNVVTKLFNDPNIASRAKKGANFITVAAQYKEQLASLMATLETTNPHFVRCIIPNNKQLPAKLEDKVVLDQLRCNGVLEGIRITRKGFPNRIIYADFVKRYYLLAPNVPRDAEDSQKATDAVLKHLNIDPEQYRFGITKIFFRAGQLARIEEAREQRISEILEQTKSDYLKRANELVQWINDKQASLESRDFGDSIESVQSFMNAHKEYKKTEKPPKGQEVSELEAIYNSLQTKLRLIKREPFVAPAGLTPNEIDSTWSALEKAEQEHAEALRIELKRQKKIAVLLQKYNRILKKLENWATTKSVYLGSNETGDSITAVQAKLKNLEAFDGECQSLEGQSNSDLLSILAQLTELNYNGVPELTERKDTFFAQQWTGVKSSAETYKNTLLAELERLQKIEDSLV
notes: Dictyostelium discoideum myosin-2 heavy chain (mhcA gene), first 765 residues (motor domain), with K265E; Dictyostelium discoideum α-actinin, codon 264 to 505 (two α-actinin repeats, artificial lever arm); Point mutant of the fusion construct m1; source: Dictyostelium discoideum AX3-Orf+ cells, purified (Ni-NTA)

Experiments:
[1] = target: F-actin (rabbit skeletal muscle actin) (rabbit, UniProt P68135 1-377); assay: cell-based or functional assay
[2] = target: Pyrene-labelled F-actin (rabbit skeletal muscle actin) (rabbit, UniProt P68135 1-377, pyrene label); assay: other fluorescence titration; stopped-flow, pyrene-actin fluorescence; k+A from the slope of observed rate constants against actin concentration; k-A by chasing pyrene-actin from the complex with a large excess of unlabelled F-actin; KA calculated as k-A/k+A; 25 mM MOPS, 100 mM KCl, 5 mM MgCl2, 1 mM DTT, pH 7.0, 20 °C; conditions: both partners purified

| Binder | k cat/K app, calculated from k cat and K app of the actin-activated steady-state ATPase [1] | Kd [2] | koff [2] | kon [2] |
| --- | --- | --- | --- | --- |
| B1 | 30000 M⁻¹ s⁻¹ | 3.6 nM | 0.0049 s⁻¹ | 1.37e+06 M⁻¹ s⁻¹ |
| B2 | 20000 M⁻¹ s⁻¹ | 7.5 nM | 0.0104 s⁻¹ | 1.38e+06 M⁻¹ s⁻¹ |
| B3 | 19000 M⁻¹ s⁻¹ | 7.6 nM | 0.0078 s⁻¹ | 1.02e+06 M⁻¹ s⁻¹ |
| B4 | 15000 M⁻¹ s⁻¹ | 10.1 nM | 0.0113 s⁻¹ | 1.11e+06 M⁻¹ s⁻¹ |
